Patent US20240011046A1 (UNIVERSITY OF PITTSBURGH OF THE COMMONWEALTH SYSTEM OF …, published 2024)

Experiments:
[1] = target: T1, TGF-β type II receptor (TβRII) (UniProt P37173 38-159); experiment: ITC: TβRII injected into the monomer, three replicate titrations globally fit to a 1:1 binding model (reference control)
T1 construct: Soluble protein: injected in ITC, and 2 µg run on the native gel; also called TGF-β receptor II; transforming growth factor-β type 2 receptor
Protocol: (§1) In order to evaluate the ability of the mmTGF-β2-7M variants described herein (mmTGF-β2-7M2R (SEQ ID NO: 9), mmTGF-β2-2M-De18-17 (SEQ ID NO: 10), and mmTGF-β2-7M-PRDC (SEQ ID NO: 11)) to bind TβRII, isothermal titration calorimetry (ITC) and native gels were used. The ITC binding experiments were performed by injecting increasing amounts of TβRII into mmTGF-β2-7M2R (SEQ ID NO: 9) or mmTGF-β2-2M-De18-17 (SEQ ID NO: 10), with mmTGF-β2-7M (SEQ ID NO: 7) used a reference control. These titrations yielded readily detectable isotherms with a large negative enthalpy and a near 1:1 binding stoichiometry (FIG. 8).

[2] = target: TGF-β receptor II (TβRII) on the HEK-293 TGF-β CAGA-Luc reporter cells (UniProt P37173 23-567, limits assumed); experiment: cell-based or functional assay
[3] = target: T1, TGF-β type II receptor (TβRII); experiment: ITC: TβRII injected into the monomer, three replicate titrations globally fit to a 1:1 binding model
Protocol: as §1

T1 sequence (P37173 38-159 limits assumed): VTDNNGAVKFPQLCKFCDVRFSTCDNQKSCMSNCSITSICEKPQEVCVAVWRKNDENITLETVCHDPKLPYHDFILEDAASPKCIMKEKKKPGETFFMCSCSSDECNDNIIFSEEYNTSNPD
Chain of TGF-β receptor II (TβRII) on the HEK-293 TGF-β CAGA-Luc reporter cells (P37173 23-567 limits assumed): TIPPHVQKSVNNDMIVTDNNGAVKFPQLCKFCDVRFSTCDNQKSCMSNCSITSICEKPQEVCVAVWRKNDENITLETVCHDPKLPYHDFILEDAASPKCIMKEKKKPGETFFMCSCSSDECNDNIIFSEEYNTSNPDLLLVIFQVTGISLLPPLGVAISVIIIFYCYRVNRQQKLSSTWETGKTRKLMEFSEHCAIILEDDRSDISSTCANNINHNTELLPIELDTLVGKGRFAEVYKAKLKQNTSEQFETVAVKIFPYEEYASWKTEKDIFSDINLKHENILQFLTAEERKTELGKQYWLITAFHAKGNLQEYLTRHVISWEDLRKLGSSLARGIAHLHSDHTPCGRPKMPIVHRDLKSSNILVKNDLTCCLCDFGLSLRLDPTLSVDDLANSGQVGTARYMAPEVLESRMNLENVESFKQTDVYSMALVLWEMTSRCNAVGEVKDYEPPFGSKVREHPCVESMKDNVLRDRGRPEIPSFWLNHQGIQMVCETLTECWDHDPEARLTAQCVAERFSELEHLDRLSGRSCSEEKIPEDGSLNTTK

Row | Binder | Kd [1] [nM] | HEK-293 CAGA-Luc TGF-β reporter assay, inhibition of signaling stimulated by 10 pM TGF-β3, IC50 [2] [nM] | Kd [3] [nM] | HEK-293 CAGA-Luc TGF-β reporter assay, IC50 relative to mmTGF-β2-7M [2] [fold]
1 | mmTGF-β2-7M (designed binder, also called dnTGFβ2^mm; mini-monomer) ALDAAYCFRNVQDNCCLRPLYIDFRKDLGWKWIHEPKGYNANFCAGACPYRASKSPSCVSQDLEPLTIVYYVGRKPKVEQLSNMIVKSCKCS | 60.5 | 58.2 | – | –
2 | mmTGF-β2-2M-Del8-17 (designed binder, The 8-17 disulfide is eliminated; also called mmTGF-β2-2M-De18-17; mmTGF-β2-2M-De18_17) ALDAAYVFRNVQDNCALRPLYIDFRRDLGWKWIHEPKGYNANFCAGACPYRASKSPSCVSQDLEPLTILYYIGRTPKIEQLSNMIVKSCKCS | – | 111 | 80.1 | –

Second part, the binder after the results:

Row | Kd [1] [nM] | HEK-293 CAGA-Luc TGF-β reporter assay, inhibition of signaling stimulated by 10 pM TGF-β3, IC50 [2] [nM] | Kd [3] [nM] | HEK-293 CAGA-Luc TGF-β reporter assay, IC50 relative to mmTGF-β2-7M [2] [fold] | Binder
3 | – | 53.3 | 75.1 | – | mmTGF-β2-7M2R (designed binder, Made to reduce aggregation) ALDAAYCFRNVQDNCCLRPLYIDFRKDLGWKWIHEPKGYNANFCAGACPYRASKSPRCRSQDLEPLTIVYYVGRKPKVEQLSNMIVKSCKCS
4 | – | 282 | – | ~5 | mmTGF-β2-7M-PRDC (designed binder) KEVLASSQEALVVTERKYLKSDWCKLRPLYIDFRKDLGWKWIHEPKGYNANFCYGQCNSFYIPRHVKKEEDSFQSSAFCVSQDLEPLTIVYYVGRKPKVEQLSNMIVKSCRCMSV
